In patent US20250027068:

Target: pooled human IgG

Row | Protein | Enzyme Activity Endpoint Assay: Fab′2 [ng/µL] | Enzyme Activity Endpoint Assay: Fc [ng/µL] | Enzyme Activity Endpoint Assay: IgG [ng/µL] | Enzyme Activity Endpoint Assay: scIgG [ng/µL] | Enzyme Activity Endpoint Assay (purified): Fab'2 [ng/µL] | Enzyme Activity Endpoint Assay (purified): Fc [ng/µL] | Enzyme Activity Endpoint Assay (purified): IgG [ng/µL] | Enzyme Activity Endpoint Assay (purified): scIgG [ng/µL]
1 | PRT-23 (protein) MANQEIRYSEVTPYHVTSVWTKGVTPPANFTQGEDVFHAPYVANQGWYDITKTFNGKDDLLCGAATAGNMLHWWFDQNKDQIERYLKEHPEKQKINFNGEQMFDVKEAIDTKNSQTDSKLFEYFKEKAFPYLSTKHLGVFPDHVIDMFINGYRLSLTNHGPTPVKEGSKDPRGGIFDAVFTRGDQSKLLTSRHDFKEKNLKEISDLIKKELTEGKALGLSHTYANVRINHVINLWGADFDSNGNLEAIYVTDSDSNASIGMKKYFVGVNSAGKVAISAKEIKEDNIGAQVLGLFTLSTGQDIWNQTN | 45 | 125 | 12 | 19 | – | – | – | –
2 | PRT-273 (protein) MVTSVWTKGVTPPTDFIYGEDVLHAPYKAGQGWYDITKTFNGKDNLLCGAATAGNMLHWWFDQNKEQIENYLKKHPEKQKIIFNNQELFDLKAAIDTKDSQLDSKLFEYFKEKAFPNLSTKHLGVFPDHVIDMFINGYRLSLLNHGPTPVKRGSKDKRGGIFDAVFTRGVQSKLLTNRHDLKNKTLKEISDLIKQELTEGKALGISHTYANVRINHVINLWGADFDAEGNLEAIYVTDSDTNASIGMKKYFVGVNSSGKVAISAKEIEEDNIGAQVLGLFTLSTGQDIWNQTN | – | – | – | – | 782 | 429 | 0 | 0
3 | PRT-249 (protein) MVTSVWTKGVTPPTNFTYGEDVLHAPYVANQGWYDITKTFNGKDDLLCGAATAGNMLHWWFDQNKEQIENYLKKHPEKQKINFNGEQMFDVKEAIDTKDSQLDSKLFDYFKEKAFPNLSTKHLGVFPDHVIDMFINGYRLSLLNHGPTPVKRGSKDPRGGIFDAVFTRGDQSKLLTNRHDFKEKTLKEISDLIKQELTEGKALGISHTYANVRINHVINLWGADFDAEGNLEAIYVTDSDSNPSIGMKKYFVGVNSSGKVAISAKEIEEDNIGAQVLGLFTLSTGQDIWNQTN | – | – | – | – | 818 | 457 | 0 | 0
4 | PRT-257 (protein) MVTSVWTKGVTPPTNFTYGEDVLHAPYVANQGWYDITKLFNGKDDLLCGAATAGNMLHWWFDQNKEQIENYLKKHPEKQKINFNGEQMFDVKEAIDTKDSQLDSKLFDYFKEKAFPYLSTKHLGVFPDHVIDMFINGYRLSLTNHGPTPVKRGSKDPRGGIFDAVFTRGDQSKLLTNRHDFKEKTLKEISDLIKQELTEGKALGISHTYANVRINHVINLWGADFDAEGNLEAIYVTDSDSNPSIGMKKYFVGVNSSGKVAISAKEIEEDNIGAQVLGLFTLSTGQDIWNQTN | – | – | – | – | 1050 | 439 | 0 | 0
5 | PRT-289 (protein) MVTSVWTKGVTPPADFTQGEDVFHAPYVANQGWYDITKTFNGKDDLLCGAATAGNMLHWWFDQNKEYIEAYLKKHPEKQKIMFGDQELLDVRKAINTKGSQKNSELFNYFRDKAFPNLSARRLGVMPDLVLDMFINGYYLNVTKTQTTDVNRTYQEKDKRGGIFDAVFTRGDQSKLLTSRHDFKEKGLKEISDLIKQELTEGKALGLSHTYANVGINHVINLWGADFDSDGNLKAIYVTDSDSNASIGMKKYFVGVNSSGKVAISAKEIKEDNIGAQVLGLFTLSTGQDIWNQTN | – | – | – | – | 581 | 304 | 90 | 114
6 | PRT-305 (protein) MVTSVWTKGVTPPTDFIKGEDVFHAPYKAGQGWYDITKEFNGKDDLLCGAATAGNMLHWWFDQNKEYIEAYLKKHPEKQKIMFGDQELLDVRKAINTKGSQKNSELFNYFRDKAFPNLSARRLGVMPDLVLDMFINGYYLNVTKTQTTDVNRTYQEKDKRGGIFDAVFTRGDQSKLLTSRHDFKEKGLKEISDLIKQELTEGKALGLSHTYANVRIGHVINLWGADFDSDGNLKAIYVTDSDSNASIGMKKYGVGVNSAGKVAISAKEIKEDNIGAQVLGLFTLSTGQDIWNQTN | – | – | – | – | 786 | 359 | 91 | 0
7 | PRT-297 (protein) MVTSVWTKGVTPPADFTQGEDVFHAPYDANQGWYDITKEFNGKDDLLCGAATAGNMLHWWFDQNKEYIEAYLKKHPEKQKIMFGDQELLDVRKAINTKGSQKNSELFNYFRDKAFPNLSARRLGVMPDLVLDMFINGYYLNVTKTQTTDVNRTYQEKDKRGGIFDAVFTRGDQSKLLTSRHDFKEKGLKEISDLIKQELTEGKALGLSHTYANVRIGHVINLWGADFDSDGNLKAIYVTDSDSNASIGMKKYGVGVNSAGKVAISAKEIKEDNIGAQVLGLFTLSTGQDIWNQTN | – | – | – | – | 484 | 345 | 338 | 0
8 | PRT-281 (protein) MVTSVWTKGVTPPAKFTQGEDVFHAPYVANQGWYDITKTFNGKDDLLCGAATAGNMLHWWFDQNKEKIEAYLKKHPDKQKIMFGDQELLDVRKVINTKGDQTNSELFNYFRDKAFPNLSARRIGVMPDLVLDMFINGYYLNVYKTQTTDVNRTYQEKDRRGGIFDAVFTRGDQSKLLTSRHDFKEKNLKEISDLIKKELTEGKALGLSHTYANVRIGHVINLWGADFDSNGNLKAIYVTDSDSNASIGMKKYFVGVNSSGKVAISAKEIKEDNIGAQVLGLFTLSTGQDSWNQTN | – | – | – | – | 673 | 317 | 347 | 29
9 | PRT-313 (protein) MQITSVWTKGVTPLTPEQFRENNEDVIHAPYLAHQGWYDITKAFDGKDNLLCGAATAGNMLHWWFDQNKTEIEAYLSKHPEKQKIIFGNQELFDLKAAIDTKDSQTNSQLFDYFRDKAFPNLSARQLGVMPDLVLDMFINGYYLNVGKTQSTDVNRPYQDKDKRGGIFDAVFTRGDQTTLLTARHDLKNKGLNDISTIIKQELTEGRALALSHTYANVSISHVINLWGADFNAEGELEAIYVTDSDANPSIGMKKYFVGRNAHGHVAISAKKIEGENIGAQVLGLFTLSSGKDIWQKLS | – | – | – | – | 409 | 303 | 114 | 328
10 | PRT-265 (protein) MVTSVWTKGVTPPTNFTYGEDVLHAPYVANQGWYDITKLFNGKDNLLCGAATAGNMLHWWFDQNKEQIENYLKKHPEKQKINFNGEQLFDVKEAIDTKDSQLDSKLFEYFLEKAFPYLSTKHLGVFPDHVIDMFINGYRLSLTNHGPTPVKRGSKDKRGGIFDAVFTRGVQSKLLTNRHDFKEKTLKEISDLIKQELTEGKALGISHTYANVRINHVINLWGADFDAEGNLEAIAVTDSDTNASIGMKKYFVGVNSSGKVAISAKEIEEDNIGAQVLGLFTLSTGQDIWNQTN | – | – | – | – | 0 | 3 | 1640 | 0
